From patent US11260115B1, “Peptides and combination of peptides for use in immunotherapy against CLL and other cancers” (immatics biotechnologies GmbH, priority 2015, dated 2022)

Each substance was assayed against HLA-A*02:01 (Homo sapiens, UniProt P04439, D140Y/D185E/D98H/E176V/E277Q/G131W/G231S/I119V/I121R/I166T/I218V/L300P/L318F/N151K/N90K/P208A/P217A/Q86G/Q94H/R138H/R169H/T345S) (assay: MHC binding assay (UV-ligand exchange, β2m ELISA, peptide exchange yield)). Conditions: binding to HLA-A*02:01.
Outline: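 Peptide-HLA-A*02:01 complexes formed by UV-mediated exchange of a photocleavable ligand; exchange yield measured by streptavidin-capture ELISA detecting β2m with HRP anti-β2m, TMB read at 450 nm. Refolded monomer standards 15-500 ng/ml; samples diluted 100-fold.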

Substance | Peptide Exchange (MHC class I binding score, peptide exchange yield)
302 (ILQDLTFVHL; listed as Homo sapiens) [compound 302] | “+++” (>50 = +++)
264 (TILDYINVV; listed as Homo sapiens) [compound 264] | “+++” (>50 = +++)
382 (YLLPLLQRL; listed as Homo sapiens) [compound 382] | “++++” (>75% = ++++)
42 (FLEEGGVVTV; listed as Homo sapiens) [compound 42] | “+++” (>50 = +++)
182 (VLLSVPGPPV; listed as Homo sapiens) [compound 182] | “+++” (>50 = +++)
62 (GIIDGSPRL; listed as Homo sapiens) [compound 62] | “+++” (>50 = +++)
133 (YLLSGDISEA; listed as Homo sapiens) [compound 133] | “+++” (>50 = +++)
308 (SLYDVSRMYV; listed as Homo sapiens) [compound 308] | “++++” (>75% = ++++)
349 (ALATHILSL; listed as Homo sapiens) [compound 349] | “+++” (>50 = +++)
165 (TLDDDLDTV; listed as Homo sapiens) [compound 165] | “++” (>20% = ++)
176 (VLAEQNIIPSA; listed as Homo sapiens) [compound 176] | “+++” (>50 = +++)
241 (ILGDILLKV; listed as Homo sapiens) [compound 241] | “+++” (>50 = +++)
35 (FILPSSLYL; listed as Homo sapiens) [compound 35] | “+++” (>50 = +++)
10 (FVYGESVEL; listed as Homo sapiens) [compound 10] | “+++” (>50 = +++)
68 (GLDQQFAGLDL; listed as Homo sapiens) [compound 68] | “+” (>10% = +)
194 (YLDNVLAEL; listed as Homo sapiens) [compound 194] | “++++” (>75% = ++++)
16 (ALPGGAAVAAV; listed as Homo sapiens) [compound 16] | “++++” (>75% = ++++)
58 (YIQQGIFSV; listed as Homo sapiens) [compound 58] | “+++” (>50 = +++)
130 (LLVLIPVYL; listed as Homo sapiens) [compound 130] | “+” (>10% = +)
93 (ILFNTQINI; listed as Homo sapiens) [compound 93] | “+++” (>50 = +++)
239 (ILAGEMLSV; listed as Homo sapiens) [compound 239] | “+++” (>50 = +++)
316 (MLLEHGITL; listed as Homo sapiens) [compound 316] | “+++” (>50 = +++)

Second part, the substance after the results:

Peptide Exchange (MHC class I binding score, peptide exchange yield) | Substance
“++++” (>75% = ++++) | 327 (VLIKWFPEV; listed as Homo sapiens) [compound 327]
“+++” (>50 = +++) | 139 (NLTDVVEKL; listed as Homo sapiens) [compound 139]
“++++” (>75% = ++++) | 287 (FLWEEKFNSL; listed as Homo sapiens) [compound 287]
“+++” (>50 = +++) | 24 (AMAGDVVYA; listed as Homo sapiens) [compound 24]
“++++” (>75% = ++++) | 186 (VMDPTKILI; listed as Homo sapiens) [compound 186]
“+++” (>50 = +++) | 331 (VLWELAHLPTL; listed as Homo sapiens) [compound 331]
“+++” (>50 = +++) | 274 (VLLEYHIAYL; listed as Homo sapiens) [compound 274]
“+” (>10% = +) | 98 (SLIKYFLFV; listed as Homo sapiens) [compound 98]
“+++” (>50 = +++) | 126 (LLPEGGITAI; listed as Homo sapiens) [compound 126]
“+++” (>50 = +++) | 378 (YILGKFFAL; listed as Homo sapiens) [compound 378]
“+++” (>50 = +++) | 367 (NLWSLVAKV; listed as Homo sapiens) [compound 367]
